Measured values: patent US10533231B2, “Artificial bioluminescent enzyme” (NATIONAL INSTITUTE OF ADVANCED INDUSTRIAL SCIENCE AND …, priority 2012, dated 2020)

Tests used:
[1] = system: COS-7 cells; assay: Luminescence stability of ALucs after substrate injection (Example 1-3); assay type: cell-based, African green monkey; conditions: Promega lysis and reaction solution
Description: The luminescence stability of the artificial luciferases (ALucs) of the present invention was examined in various respects (FIG. 3). COS-7 cells containing each luciferase gene were cultured for 9 hours, and treated with a cell lysis solution produced by Promega for 20 minutes. Temporal changes in luciferase luminescence intensity after the introduction of a substrate-containing reaction solution produced by Promega were observed every five minutes (FIG. 3A).
This experiment was expanded to artificial luciferases ALuc16 to ALuc25 (FIG. 3BC).

[2] = system: COS-7 cells; assay: Degree of extracellular secretion of ALucs (Example 1-4); assay type: cell-based, African green monkey; conditions: luminescence intensity of the medium, overnight culture
Description: Further, each luciferase (ALuc) was introduced into COS-7 cells, culturing was performed overnight, and then the amount of each luciferase (ALuc) secreted from the cells was measured based on the luminescence intensity of the medium (FIG. 4B).

[3] = Prolonged activity stability of ALucs secreted in medium (Example 1-19); assay type: physicochemical; conditions: Day 0 to Day 25
Description: The prolonged activity stability of the artificial luciferases (ALucs) developed in the present invention was examined. First, a plasmid expressing each artificial luciferase (ALuc16, ALuc22, ALuc23, ALuc24, ALuc25, and ALuc30) (in the figure, each is referred to as A16, A22, A23, A24, A25, and A30) was introduced into COS-7 cells, and then culturing was continued for 24 hours. By the culturing, each artificial luciferase was secreted into the medium. The artificial luciferase secreted in the medium was collected, and a difference in enzymatic activity was measured under the same conditions in the following manner. On the first day (Day 0), 50 μL of assay solution (containing native coelenterazine, produced by Promega) was added to 5 μL of each medium, and the luminescence value (enzymatic activity) was measured using an LAS-4000 (produced by FujiFilm). In the same manner, the luminescence value on Day 8, Day 16, and Day 25 was compared with the luminescence value on Day 0 (FIG. 19 (A)).

[4] = system: COS-7 cells; assay: Comparison of luminescence intensity of ALucs (Example 1-2); assay type: cell-based, African green monkey; conditions: COS-7 cultured overnight, Promega assay solution, LAS-4000
Text: The artificial luciferase (ALuc) genes synthesized by the above process were subcloned into mammalian cell expression vectors (pcDNA3.1 (+)). Each expression vector was transfected with African green monkey kidney-derived COS-7 cells, and the luminescence intensity, luminescence stability, and red-shifted degree of artificial luciferases (ALucs) were compared (FIGS. 2 to 5).
First, the luminescence intensity of artificial luciferases (ALucs) was compared (FIG. 2). For the comparison, COS-7 cells containing a vector encoding each luciferase were cultured overnight, and then the relative luminescence intensity was measured by using an assay solution, which is a mixture of a cell lysis solution and a substrate, produced by Promega, and a luminescence image analyzer (LAS-4000).

[5] = system: COS-7 cells; assay: Luminescence of ALuc25 to ALuc32 in lysate and medium (Example 1-18); assay type: cell-based; conditions: 20 hours after plasmid introduction
Description: After the insertion of a gene encoding an enzyme sequence as mentioned above into a mammalian expression vector (pcDNA3.1 (+)), each plasmid was introduced into COS-7 cells. By the transformation of these cells, each luciferase was expressed, and some of the luciferase was secreted out of the cells and some of the luciferase retained in the cells. 20 hours after the plasmid introduction, media of the cells were sampled, and the remaining cells were lysed with a lysis buffer (lysate preparation). Immediately after 50 μL of assay solution (containing a substrate) was simultaneously added to each prepared medium (5 μL) or lysate (5 μL), the luminescence value was measured using a luminescence analyzer (LAS-4000; FujiFilm) (n=3) (FIG. 18).

[6] = system: COS-7 cells; assay: Enzymatic activity confirmation of ALuc (section 3-1, 3-2); assay type: cell-based, African monkey; conditions: vs conventional copepod luciferases
Description: First, using a known lipid reagent for gene introduction, an expression vector encoding ALuc is introduced into African monkey-derived COS-7 cells; as a control, an expression vector having a known GLuc without any mutation into the cells is also introduced in the same manner. At a predetermined time (from 10 to 20 hours, for example, 16 hours) after the introduction of the vector, a cell lysate is prepared using a known lysis reagent.
Thereafter, the cell lysate is mixed with a known substrate solution containing coelenterazine, and its color intensity, temporal stability in luminescence, etc., are measured.
The luminescence intensity may be found by measuring the intensity at a specific wavelength using a known luminescence spectrophotometer after addition of a known substrate. By performing the measurement every minute, the temporal stability in luminescence can be evaluated. To measure a shift to a longer wavelength, scanning of the entire wavelength is necessary.

[7] = Heat resistance of ALucs in lysate (Example 1-4); assay type: physicochemical; conditions: 80° C. for 10 minutes
Description: The heat resistance and degree of extracellular secretion of artificial luciferases of the present invention were measured (FIG. 4). First, to measure heat resistance, COS-7 cells containing each luciferase were lysed in cell lysis solutions produced by Promega to prepare lysates. Subsequently, same samples were allowed to stand at room temperature or heated at 80° C. for 10 minutes, and changes in luminescence intensity were compared by using a (substrate-containing) reaction solution produced by Promega.

[8] = system: COS-7 cells; assay: Luminescence intensity of tag-containing ALucs secreted into medium (Example 1-21); assay type: cell-based; conditions: culturing one day, Promega kit with nCTZ
Description: To compare the luminescence intensity of novel luciferases, a comparison experiment was performed under the same conditions as Example 1-2 (COS-7 cells, culturing for one day, using an assay kit produced by Promega) (FIG. 21 (B)). Finally, the luminescence intensity of each luciferase secreted into the medium was compared using an assay kit (containing native coelenterazine (nCTZ)) produced by Promega.

[9] = Temporal change in luminescence after substrate injection, medium 25 days after expression (Example 1-19); assay type: biochemical
Description: 50 μL of an assay solution (containing native coelenterazine, produced by Promega) was added to 5 μL of each medium 25 days after the expression, and the luminescence value (enzymatic activity) was measured using an LAS-4000 (produced by FujiFilm).

[10] = system: COS-7 cells; assay: Luminescence characteristics of tag-containing ALucs (Example 1-22); assay type: cell-based; conditions: medium two days after gene transfer
Description: To compare the relative luminescence intensity of these luciferases, the following experiment was conducted. First, a gene encoding each luciferase was subcloned into pcDNA3.1 (+), which is a eukaryotic expression vector, and each vector was introduced into COS-7 cells. Two days after gene transfer, the relative luminescence intensity of luciferase secreted into each medium was compared using a luminescence reagent produced by Promega.

Molecule | luminescence intensity (initial) [1] | extracellular secretion [2] | prolonged enzymatic activity stability [3] | luminescence intensity higher than that of conventional GLuc, Renilla luciferase and MpLuc4 [4] | luminescence value from lysate [5] | luminescence stability (general statement) [6] | change of luminescence intensity by heating [7] | luminescence intensity of luciferase secreted into the medium [8] | luminescence from cell medium [5] | time of maximum luminescence value after infusion of coelenterazine ([9]; after long-term conservation (25 days)) [min] | temporal change of luminescence after substrate injection ([9]; medium 25 days after expression) | relative luminescence intensity [10]
ALuc25: artificial luciferase, SEQ ID NO: 17 (protein, Synthetic ALuc25) MMGVKLIFAVLCVAVAQANATINENFEDIDLVAIGGSFADLETDLFTIVEDMNVISRDTDVDANRGGRGRRGKLPGKKLPLEVLKELEANAQKAGCTRGCLICLSHIKCTAKMKKWLPGRCESWEGDKETGQGGIGEAIVDIPEIPGFKELAPMEQFIAQVDLCADCTTGCLKGLANVKCSALLKKWLPSRCAGFADKIQAQVDTIKGAGGS | advantageous initial luminescence intensity | low extracellular secretion | maintained stable enzymatic activity until Day 25 | about 50 folds | extremely higher than those of conventional GLuc and MpLuc4 | remarkably stable luminescence signals | a remarkable reduction in luminescence intensity that may be due to heating was not observed | – | – | – | – | –
ALuc30: artificial luciferase containing a His tag, SEQ ID NO: 32 (protein, His tag; Synthetic Aluc30) MMGIKVLFALICFALVQANHHHHHHHHDIVGVEGKFGTTDLETDLFTIVEDMNVISRDTDVDANRADRGRRGKLPGKKLPLEVLKELEANAQKAGCTRGCLICLSHIKCTAKMKKWLPGRCESWEGDKETGQGGIGEAIVDIPEIPGFKELAPMEQFIAQVDLCADCTTGCLKGLANVKCSALLKKWLPSRCAGFADKIQAQVDTIKGAGGS | – | – | maintained stable enzymatic activity until Day 25 | – | extremely higher than those of conventional GLuc and MpLuc4 | remarkably stable luminescence signals | – | relatively high luminescence intensity | strong bioluminescence | 12 | several times higher | –
ALuc33: artificial luciferase containing an HA-tag, SEQ ID NO: 35 (protein, HA tag; Synthetic ALuc33) MMGIKVLFALICFALVQANMMYPYDVPDYAGVEGKFGTTDLETDLFTIVEDMNVISRDTDVDANRADRGRRGKLPGKKLPLEVLKELEANAQKAGCTRGCLICLSHIKCTAKMKKWLPGRCESWEGDKETGQGGIGEAIVDIPEIPGFKELAPMEQFIAQVDLCADCTTGCLKGLANVKCSALLKKWLPSRCAGFADKIQAQVDTIKGAGGS | – | – | – | – | – | remarkably stable luminescence signals | – | relatively high luminescence intensity | – | – | – | relatively high luminescence intensity
ALuc32: artificial luciferase containing a c-Myc-tag, SEQ ID NO: 34 (protein, c-Myc tag; Synthetic ALuc32) MMGIKVLFALICFALVQANEQKLISEEDLVGVEGKFGTTDLETDLFTIVEDMNVISRDTDVDANRADRGRRGKLPGKKLPLEVLKELEANAQKAGCTRGCLICLSHIKCTAKMKKWLPGRCESWEGDKETGQGGIGEAIVDIPEIPGFKELAPMEQFIAQVDLCADCTTGCLKGLANVKCSALLKKWLPSRCAGFADKIQAQVDTIKGAGGS | – | – | – | – | – | remarkably stable luminescence signals | – | – | – | – | – | relatively poor luminescence intensity
